This is an account of results in PMC5951372.

The target in assay [1] is murine double minute 2 (MDM2) protein fragment. The experiment in a line: atomic force microscopy; topographic maps of 20 x 20 µm^2 of the MDM2-functionalised photonic crystal surface after incubation with p53 (1.5 uM, 20 min); binding spots 10-20 nm high counted as p53•MDM2 complex. Set-up: unit not given here.
Assay [2] has the same target. The experiment in a line: photonic crystal bound-states-in-the-continuum resonance shift (label-free optical biosensor); MDM2 immobilised on the Si3N4 photonic crystal by APTES and BS3 (1.5 uM in 20 mM HEPES pH 7.4, 4 °C overnight), blocked with 5% non-fat dried milk in PBS; p53 1.5 uM in PBS, 20 min at room temperature, washed with PBS; transmission spectrum at θ = 0°.

For “p53 protein fragment (interacting domain of p53) (domain or fragment)”, the surface density of the complex in assay [1] amounted to 0.24. Also, in assay [2], the shift of the resonance wavelength stood at 2.4 nm.
